Experiments:
[1] = target: T1, prostate-specific membrane antigen (PSMA) (human, UniProt Q04609 1-750); test: flow cytometry binding, 22Rv1 cells; 3 wk enza
[2] = target: T1, prostate-specific membrane antigen …; test: flow cytometry binding, 22Rv1 cells; 0 enza (untreated)
[3] = target: T1, prostate-specific membrane antigen …; test: flow cytometry binding, 22Rv1 cells; 1 wk enza
[4] = target: T1, prostate-specific membrane antigen …; test: flow cytometry binding, 22Rv1 cells; 2 wk enza

T1 sequence (Q04609 whole entry): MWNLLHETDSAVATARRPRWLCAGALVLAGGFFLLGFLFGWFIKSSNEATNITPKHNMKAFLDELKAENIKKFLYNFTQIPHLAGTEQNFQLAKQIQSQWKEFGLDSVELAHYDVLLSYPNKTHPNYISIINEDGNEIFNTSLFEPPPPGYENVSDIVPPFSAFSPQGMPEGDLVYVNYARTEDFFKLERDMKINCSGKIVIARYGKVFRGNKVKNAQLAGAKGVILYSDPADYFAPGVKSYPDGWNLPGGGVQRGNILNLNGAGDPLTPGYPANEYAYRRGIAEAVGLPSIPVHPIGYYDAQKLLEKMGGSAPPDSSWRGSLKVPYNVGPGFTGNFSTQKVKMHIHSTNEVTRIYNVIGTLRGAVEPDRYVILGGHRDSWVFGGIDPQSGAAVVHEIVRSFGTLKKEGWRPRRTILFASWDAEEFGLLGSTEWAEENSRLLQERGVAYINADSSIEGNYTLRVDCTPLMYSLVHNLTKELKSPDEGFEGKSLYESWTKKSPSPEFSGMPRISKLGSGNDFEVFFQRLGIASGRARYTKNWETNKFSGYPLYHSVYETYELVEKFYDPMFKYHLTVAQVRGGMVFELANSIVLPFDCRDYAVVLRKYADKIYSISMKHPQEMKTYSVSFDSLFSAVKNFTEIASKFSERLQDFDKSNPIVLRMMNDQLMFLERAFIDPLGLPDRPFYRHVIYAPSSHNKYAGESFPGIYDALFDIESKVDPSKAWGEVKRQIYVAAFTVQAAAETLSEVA

B1: FITC-labeled anti-PSMA monoclonal antibody 107-1A4 (Acris) (antibody, V domains shown)
VH: EIQLQQSGPELVKPGASVKMSCKASGYTFTDYYMHWVKQNNGESLEWIGYFNPYNDYTRYNQNFNGKATLTVDKSSSTAYMQLNSLTSEDSAFYYCARSDGYYDAMDYWGQGTSVTVSS
VL: DVQITQSPSYLAASPGETITINCRASKSISKYLAWYQEKPGKANKLLIHSGSTLQSGIPSRFSGSGSGTDFTLTISSLEPEDFAMYYCQQHIEYPWTFGGGTKLEIKR
EC50 [1]: 2.7 nM
EC50 [2]: 2.2 nM
EC50 [3]: 2.3 nM
EC50 [4]: 2.5 nM
